These are literature values, as cited in patent US5679705A, “Triterpene derivatives with immunosuppressant activity” (Merck & Co., Inc., priority 1996, dated 1997).

The series addresses T1, Kv 1.3 channels (CHO cells transfected with Kv 1.3 channels) (Homo sapiens, UniProt P22001).
T1 construct: expressed in transfected cells; host or cells: CHO cells
The settings on record: stated in the method for the peptide used to establish the efflux window; read-out: IC50 (blocker of Kv 1.3 channels).

T1 sequence (P22001 whole entry): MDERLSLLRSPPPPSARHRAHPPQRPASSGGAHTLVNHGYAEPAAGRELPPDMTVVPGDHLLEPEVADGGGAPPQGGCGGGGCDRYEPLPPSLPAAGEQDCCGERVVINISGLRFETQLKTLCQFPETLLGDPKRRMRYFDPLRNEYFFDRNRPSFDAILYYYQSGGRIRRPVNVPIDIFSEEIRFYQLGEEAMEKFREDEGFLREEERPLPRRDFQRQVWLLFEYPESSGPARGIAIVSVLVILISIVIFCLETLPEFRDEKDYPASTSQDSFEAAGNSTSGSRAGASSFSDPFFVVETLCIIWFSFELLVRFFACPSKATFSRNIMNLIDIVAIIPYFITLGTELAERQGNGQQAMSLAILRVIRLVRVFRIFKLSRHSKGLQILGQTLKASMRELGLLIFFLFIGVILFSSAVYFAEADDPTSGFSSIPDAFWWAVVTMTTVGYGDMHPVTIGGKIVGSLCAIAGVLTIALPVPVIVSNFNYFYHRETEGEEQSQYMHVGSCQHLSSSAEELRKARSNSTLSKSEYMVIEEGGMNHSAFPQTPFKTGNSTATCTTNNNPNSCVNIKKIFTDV

In the case of “margatoxin (TIINVKCTSPKQCLPPCKAQFGQSAGAKCMNGKCKCYPH; UniProt P40755 1-39, looked up)”, the IC50 is 0.1 nM.
